# Assay results from PMC8950220, “Impact of Fluorinated Ionic Liquids on Human Phenylalanine Hydroxylase—A Potential Drug Delivery System” (Nanomaterials, 2022).
# B1: human phenylalanine hydroxylase (enzyme, UniProt P00439 1-452, looked up)
# chain: MSTAVLENPGLGRKLSDFGQETSYIEDNCNQNGAISLIFSLKEEVGALAKVLRLFEENDVNLTHIESRPSRLKKDEYEFFTHLDKRSLPALTNIIKILRHDIGATVHELSRDKKKDTVPWFPRTIQELDRFANQILSYGAELDADHPGFKDPVYRARRKQFADIAYNYRHGQPIPRVEYMEEEKKTWGTVFKTLKSLYKTHACYEYNHIFPLLEKYCGFHEDNIPQLEDVSQFLQTCTGFRLRPVAGLLSSRDFLGGLAFRVFHCTQYIRHGSKPMYTPEPDICHELLGHVPLFSDRSFAQFSQEIGLASLGAPDEYIEKLATIYWFTVEFGLCKQGDSIKAYGAGLLSSFGELQYCLSEKPKLLPLELEKTAIQNYTVTEFQPLYYVAESFNDAKEKVRNFAATIPRPFSVRYDPYTQRIEVLDNTQQLKILADSINSEIGILCSALQKIK
# notes: human phenylalanine hydroxylase (hPAH), recombinant full-length, each subunit 52 kDa; No step that cleaves the tag is described, and the enzymatic assays name the protein His6-hPAH, so the tag and linker were probably kept; The tetramer fraction from SEC was the starting material of all assays; also called hPAH; His6-hPAH; source: E. coli Top10, purified (Ni-NTA, SEC on Superdex 200 Increase; …)
# Assays:
# [1] = target: the molecule itself; test: SEC; Superdex 200 Increase 10/300, 20 mM HEPES pH 7.0, 200 mM NaCl, 277.15 K; tetramer fraction isolated
# [2] = target: the molecule itself; test: native gel or EMSA; blue native PAGE, NativePAGE 4-16% Bis-Tris gel; hPAH with 0-1.2% v/v [N1112(OH)][C4F9SO3], with and without L-Phe
# [3] = target: the molecule itself; test: SAXS; batch mode, 0.9 mg/mL hPAH in 20 mM HEPES pH 7.0, 200 mM NaCl, 0-1.2% v/v [N1112(OH)][C4F9SO3], no L-Phe; volume fractions of oligomers fitted with OLIGOMER
protein,measurement,setting,value
B1,stoichiometry N,[1],4
same,stoichiometry N,[2],8
same,stoichiometry N,[3],2
